Earlier results as cited in patent publication US20260263353A1, “PROGRAMMABLE DRUG-DEVICE MICRONEEDLE SYSTEM FOR THE DELIVERY AND MONITORING OF DIABETES AND OBESITY MEDICATIONS” (ALJ Creative Works, LLC, priority 2023, published 2026).

Settings: once weekly dosing at clinically relevant doses; literature reference [26]

Insulin ICODEC
half-life: about 196 hours | safety and tolerability: safe and well-tolerated
